# Data published in patent US20200262877A1, “ION CHANNEL-BINDING PEPTIDES AND METHODS OF USE THEREOF” (priority 2017, published 2020).
# Tests used:
# [1] = target: T1, 5HT3a (Homo sapiens, UniProt P46098); assay: Ion channel panel (IonWorks Barracuda): 5HT3a; type: cell-based
# T1 construct: host or cells: HEK293 or CHO
# T1 sequence (P46098 whole entry, looked up): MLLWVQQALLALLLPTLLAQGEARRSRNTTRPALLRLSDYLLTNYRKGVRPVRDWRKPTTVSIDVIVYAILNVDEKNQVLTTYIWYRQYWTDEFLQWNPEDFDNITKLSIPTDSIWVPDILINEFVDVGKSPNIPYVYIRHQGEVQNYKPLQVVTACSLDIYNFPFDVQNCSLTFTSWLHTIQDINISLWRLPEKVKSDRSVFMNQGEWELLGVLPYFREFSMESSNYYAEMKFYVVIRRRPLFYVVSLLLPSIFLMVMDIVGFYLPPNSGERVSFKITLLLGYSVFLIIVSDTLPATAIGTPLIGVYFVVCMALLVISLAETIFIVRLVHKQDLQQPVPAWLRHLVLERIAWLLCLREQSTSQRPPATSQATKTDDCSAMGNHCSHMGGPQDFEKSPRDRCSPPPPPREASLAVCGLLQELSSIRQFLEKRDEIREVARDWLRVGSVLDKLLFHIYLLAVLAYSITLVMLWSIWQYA
# Outline: (§1)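 Peptides were tested in duplicate at final 20 μM and 200 nM, with concentration set by amino acid analysis, in HEPES-buffered saline. They were applied for at least 5 min to HEK293 or CHO cells transfected with each channel. Currents were expressed as % inhibition, 1-(Ipeptide/Icontrol)×100, or % activation, Ipeptide/Icontrol×100, against a channel-matched reference compound.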
# [2] = target: T2, α3β4 (Homo sapiens, UniProt P30926+P32297); assay: Ion channel panel (IonWorks Barracuda): α3β4; type: cell-based; details: 100% = no change, <100% = inhibition
# T2 construct: host or cells: HEK293 or CHO
# Outline: as §1
# [3] = target: T3, α4β2 (Homo sapiens, UniProt P17787+P43681); assay: Ion channel panel (IonWorks Barracuda): α4β2; type: cell-based; details: 100% = no change, <100% = inhibition
# T3 construct: host or cells: HEK293 or CHO
# Outline: as §1
# [4] = target: T4, Cav2.1 (Homo sapiens, UniProt O00555); assay: cell-based; details: 100% = no change, <100% = inhibition
# T4 construct: host or cells: HEK293 or CHO
# Outline: as §1
# [5] = target: T5, Cav2.2 (Homo sapiens, UniProt Q00975); assay: cell-based; details: 100% = no change, <100% = inhibition
# T5 construct: host or cells: HEK293 or CHO
# Outline: as §1
# [6] = target: T6, Kv2.1 (Homo sapiens, UniProt Q14721); assay: cell-based; details: 100% = no change, <100% = inhibition
# T6 construct: host or cells: HEK293 or CHO
# T6 sequence (Q14721 whole entry): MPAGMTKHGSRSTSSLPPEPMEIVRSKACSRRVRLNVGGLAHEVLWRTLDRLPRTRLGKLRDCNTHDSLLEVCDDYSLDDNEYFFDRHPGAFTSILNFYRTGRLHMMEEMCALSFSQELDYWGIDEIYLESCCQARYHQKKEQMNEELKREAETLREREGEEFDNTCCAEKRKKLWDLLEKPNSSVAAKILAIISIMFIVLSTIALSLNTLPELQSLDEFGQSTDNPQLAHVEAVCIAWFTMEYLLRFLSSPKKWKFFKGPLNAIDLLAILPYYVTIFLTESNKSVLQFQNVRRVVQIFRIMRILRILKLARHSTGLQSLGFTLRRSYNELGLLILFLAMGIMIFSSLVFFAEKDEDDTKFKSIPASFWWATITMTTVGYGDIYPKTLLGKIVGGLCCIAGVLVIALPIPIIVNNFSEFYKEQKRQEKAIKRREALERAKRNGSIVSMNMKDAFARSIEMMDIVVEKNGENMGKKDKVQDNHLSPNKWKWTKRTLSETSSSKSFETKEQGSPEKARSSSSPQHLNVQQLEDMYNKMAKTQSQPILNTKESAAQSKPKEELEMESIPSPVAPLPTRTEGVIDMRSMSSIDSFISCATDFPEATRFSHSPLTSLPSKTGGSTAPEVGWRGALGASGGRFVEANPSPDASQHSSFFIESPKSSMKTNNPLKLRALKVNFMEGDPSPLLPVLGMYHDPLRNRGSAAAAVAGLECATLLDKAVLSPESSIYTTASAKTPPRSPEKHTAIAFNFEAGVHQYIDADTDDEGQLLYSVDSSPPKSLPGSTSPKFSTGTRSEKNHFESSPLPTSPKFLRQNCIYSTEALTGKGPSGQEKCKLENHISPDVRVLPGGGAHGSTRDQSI
# Outline: as §1
# [7] = tested on: GABA; assay: Ion channel panel (IonWorks Barracuda): GABA; type: cell-based; details: 100% = no change, <100% = inhibition
# Outline: as §1
# [8] = target: Nav1.5 (Homo sapiens, UniProt Q14524); assay: in vitro; details: 100% = no change; for Activity of Nav1.5 with peptide, expressed as a percentage of the reference compound: peptide at 0.2 μM; for Activity of Nav1.5 with peptide (percentage of the reference compound): peptide at 20 μM
# Chain of Nav1.5 (Q14524 whole entry): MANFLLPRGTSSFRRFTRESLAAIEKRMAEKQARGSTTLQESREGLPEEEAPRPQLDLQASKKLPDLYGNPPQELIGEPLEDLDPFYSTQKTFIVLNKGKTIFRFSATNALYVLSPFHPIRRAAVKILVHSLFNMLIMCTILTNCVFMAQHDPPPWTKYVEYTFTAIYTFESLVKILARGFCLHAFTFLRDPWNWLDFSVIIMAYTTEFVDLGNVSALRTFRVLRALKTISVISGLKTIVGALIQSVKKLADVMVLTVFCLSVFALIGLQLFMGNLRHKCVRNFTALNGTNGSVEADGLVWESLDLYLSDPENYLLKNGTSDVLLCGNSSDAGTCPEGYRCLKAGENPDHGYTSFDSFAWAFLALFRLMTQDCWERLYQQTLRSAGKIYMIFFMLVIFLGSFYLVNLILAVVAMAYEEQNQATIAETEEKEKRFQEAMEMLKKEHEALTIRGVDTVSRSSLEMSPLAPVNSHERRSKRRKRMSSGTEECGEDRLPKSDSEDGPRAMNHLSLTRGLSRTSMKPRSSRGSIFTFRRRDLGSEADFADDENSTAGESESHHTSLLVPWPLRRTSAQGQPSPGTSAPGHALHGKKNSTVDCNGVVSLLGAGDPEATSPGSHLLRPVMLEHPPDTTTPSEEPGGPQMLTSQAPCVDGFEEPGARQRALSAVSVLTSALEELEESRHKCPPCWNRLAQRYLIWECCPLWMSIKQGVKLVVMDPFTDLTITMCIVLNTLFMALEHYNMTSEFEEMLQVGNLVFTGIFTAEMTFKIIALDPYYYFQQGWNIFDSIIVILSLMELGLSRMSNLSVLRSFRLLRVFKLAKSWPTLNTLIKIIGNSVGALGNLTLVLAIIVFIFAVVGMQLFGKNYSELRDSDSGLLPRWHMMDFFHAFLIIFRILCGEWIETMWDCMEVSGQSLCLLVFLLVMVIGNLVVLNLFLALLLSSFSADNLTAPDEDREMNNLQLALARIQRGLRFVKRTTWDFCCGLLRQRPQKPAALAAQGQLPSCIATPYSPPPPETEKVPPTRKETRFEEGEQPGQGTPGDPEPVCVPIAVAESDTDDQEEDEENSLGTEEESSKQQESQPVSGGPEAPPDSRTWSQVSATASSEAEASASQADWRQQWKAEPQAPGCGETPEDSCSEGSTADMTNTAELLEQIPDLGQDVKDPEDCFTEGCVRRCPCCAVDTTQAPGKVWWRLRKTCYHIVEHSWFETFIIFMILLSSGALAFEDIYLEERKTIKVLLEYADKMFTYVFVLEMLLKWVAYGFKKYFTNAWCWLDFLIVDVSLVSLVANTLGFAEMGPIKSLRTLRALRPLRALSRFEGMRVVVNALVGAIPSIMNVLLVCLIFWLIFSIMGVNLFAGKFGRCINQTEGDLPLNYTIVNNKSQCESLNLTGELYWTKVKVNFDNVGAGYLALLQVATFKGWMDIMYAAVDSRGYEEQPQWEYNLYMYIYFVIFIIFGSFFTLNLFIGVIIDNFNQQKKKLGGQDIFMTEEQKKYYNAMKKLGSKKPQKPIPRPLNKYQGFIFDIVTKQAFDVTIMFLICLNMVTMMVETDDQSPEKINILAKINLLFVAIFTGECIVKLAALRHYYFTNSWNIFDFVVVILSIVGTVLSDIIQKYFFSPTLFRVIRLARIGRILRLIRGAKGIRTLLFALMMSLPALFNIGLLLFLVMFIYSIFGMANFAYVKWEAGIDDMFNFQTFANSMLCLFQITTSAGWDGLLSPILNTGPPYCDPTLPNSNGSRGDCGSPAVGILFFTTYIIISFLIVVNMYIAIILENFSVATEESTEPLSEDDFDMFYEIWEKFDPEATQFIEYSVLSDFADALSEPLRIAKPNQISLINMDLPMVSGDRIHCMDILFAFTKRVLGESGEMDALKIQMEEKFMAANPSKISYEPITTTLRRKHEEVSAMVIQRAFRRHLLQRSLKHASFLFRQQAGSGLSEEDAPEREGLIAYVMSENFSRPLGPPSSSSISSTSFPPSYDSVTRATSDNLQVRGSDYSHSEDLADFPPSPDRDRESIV
# Outline: as §1
# [9] = target: hERG (Homo sapiens, UniProt Q12809); assay: in vitro; details: 100% = no change, <100% = inhibition
# Outline: as §1
# [10] = target: T7, Kir2.1 (Homo sapiens, UniProt P63252); assay: Ion channel panel (IonWorks Barracuda): Kir2.1; type: cell-based; details: 100% = no change, <100% = inhibition
# T7 construct: host or cells: HEK293 or CHO
# Outline: as §1
# [11] = target: T8, Kv1.1 (Homo sapiens, UniProt Q09470); assay: cell-based; type: cell-based; details: 100% = no change, <100% = inhibition
# T8 construct: host or cells: HEK293 or CHO
# Outline: as §1
# [12] = target: T9, Kv1.2 (Homo sapiens, UniProt P16389); assay: cell-based; type: cell-based; details: 100% = no change, <100% = inhibition
# T9 construct: host or cells: HEK293 or CHO
# Outline: as §1
# [13] = target: T10, Kv1.3 (Homo sapiens, UniProt P22001); assay: cell-based; type: cell-based; details: 100% = no change, <100% = inhibition
# T10 construct: host or cells: HEK293 or CHO
# Outline: as §1
# [14] = target: T11, Nav1.7 (Homo sapiens, UniProt Q15858); assay: cell-based; type: cell-based; details: 100% = no change; for Activity of Nav1.7 with peptide, expressed as a percentage of the reference compound: peptide at 0.2 μM; for Activity of Nav1.7 with peptide (percentage of the reference compound): peptide at 20 μM
# T11 construct: host or cells: HEK293 or CHO
# T11 sequence (Q15858 whole entry): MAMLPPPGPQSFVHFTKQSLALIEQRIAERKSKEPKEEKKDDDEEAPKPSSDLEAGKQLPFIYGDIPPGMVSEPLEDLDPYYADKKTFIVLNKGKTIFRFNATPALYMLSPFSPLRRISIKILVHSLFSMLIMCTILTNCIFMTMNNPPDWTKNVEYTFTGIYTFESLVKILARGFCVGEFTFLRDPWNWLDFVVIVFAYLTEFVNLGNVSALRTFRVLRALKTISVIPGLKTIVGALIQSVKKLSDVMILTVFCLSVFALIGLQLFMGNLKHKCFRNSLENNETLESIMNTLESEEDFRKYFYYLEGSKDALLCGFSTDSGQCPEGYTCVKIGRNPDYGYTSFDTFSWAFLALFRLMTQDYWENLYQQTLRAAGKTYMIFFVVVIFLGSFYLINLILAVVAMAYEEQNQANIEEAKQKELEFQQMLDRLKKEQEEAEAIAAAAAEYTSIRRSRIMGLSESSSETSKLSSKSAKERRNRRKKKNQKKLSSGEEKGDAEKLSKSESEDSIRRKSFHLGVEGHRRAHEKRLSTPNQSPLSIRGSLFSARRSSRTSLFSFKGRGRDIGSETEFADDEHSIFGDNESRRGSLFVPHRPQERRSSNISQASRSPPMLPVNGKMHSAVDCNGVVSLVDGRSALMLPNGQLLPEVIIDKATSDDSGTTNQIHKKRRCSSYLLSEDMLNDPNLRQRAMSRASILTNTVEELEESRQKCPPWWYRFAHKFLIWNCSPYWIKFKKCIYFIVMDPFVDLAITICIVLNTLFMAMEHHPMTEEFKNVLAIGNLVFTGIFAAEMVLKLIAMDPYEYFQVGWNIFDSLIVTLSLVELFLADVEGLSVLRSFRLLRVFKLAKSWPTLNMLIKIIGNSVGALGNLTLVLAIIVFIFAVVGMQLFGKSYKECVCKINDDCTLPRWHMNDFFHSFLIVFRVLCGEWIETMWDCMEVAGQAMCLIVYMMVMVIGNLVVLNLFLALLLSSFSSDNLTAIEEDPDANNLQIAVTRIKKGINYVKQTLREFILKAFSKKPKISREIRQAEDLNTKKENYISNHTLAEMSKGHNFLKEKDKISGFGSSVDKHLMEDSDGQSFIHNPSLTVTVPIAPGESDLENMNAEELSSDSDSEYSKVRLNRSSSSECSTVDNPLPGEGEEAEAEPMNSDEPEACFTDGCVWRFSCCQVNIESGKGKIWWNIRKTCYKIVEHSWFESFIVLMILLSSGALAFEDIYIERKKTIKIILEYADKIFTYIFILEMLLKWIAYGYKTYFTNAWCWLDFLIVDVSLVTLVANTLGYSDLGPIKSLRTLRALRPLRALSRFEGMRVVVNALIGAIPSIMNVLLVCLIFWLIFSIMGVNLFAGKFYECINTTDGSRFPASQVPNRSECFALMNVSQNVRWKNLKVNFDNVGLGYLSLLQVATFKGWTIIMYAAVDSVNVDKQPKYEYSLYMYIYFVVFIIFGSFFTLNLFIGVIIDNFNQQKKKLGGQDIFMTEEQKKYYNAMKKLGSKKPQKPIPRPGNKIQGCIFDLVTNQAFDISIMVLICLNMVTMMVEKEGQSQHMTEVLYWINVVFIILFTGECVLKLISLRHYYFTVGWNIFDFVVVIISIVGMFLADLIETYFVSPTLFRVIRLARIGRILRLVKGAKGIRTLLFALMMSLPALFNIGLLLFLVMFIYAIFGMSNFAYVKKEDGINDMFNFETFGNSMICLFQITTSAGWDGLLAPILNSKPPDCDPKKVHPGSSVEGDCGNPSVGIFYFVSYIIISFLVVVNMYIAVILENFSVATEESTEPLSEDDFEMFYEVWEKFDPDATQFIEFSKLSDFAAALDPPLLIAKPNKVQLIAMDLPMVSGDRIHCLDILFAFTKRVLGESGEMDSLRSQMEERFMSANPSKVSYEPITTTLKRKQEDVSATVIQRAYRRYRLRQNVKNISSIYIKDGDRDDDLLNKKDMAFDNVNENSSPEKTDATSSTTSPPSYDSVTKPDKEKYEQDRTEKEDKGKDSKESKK
# [15] = target: T12, NR2A (Homo sapiens, UniProt Q12879); assay: Ion channel panel (IonWorks Barracuda): NR2A; type: cell-based; details: 100% = no change, <100% = inhibition
# T12 construct: host or cells: HEK293 or CHO
# Outline: as §1
# [16] = target: T13, NR2B (Homo sapiens, UniProt Q13224); assay: Ion channel panel (IonWorks Barracuda): NR2B; type: cell-based; details: 100% = no change, <100% = inhibition
# T13 construct: host or cells: HEK293 or CHO
# Outline: as §1
# [17] = target: T14, TRPA1 (Homo sapiens, UniProt O75762); assay: Ion channel panel (IonWorks Barracuda): TRPA1; type: cell-based; details: 100% = no change, <100% = inhibition
# T14 construct: host or cells: HEK293 or CHO
# Outline: as §1
# [18] = target: T15, TRPV1 (Homo sapiens, UniProt Q8NER1); assay: Ion channel panel (IonWorks Barracuda): TRPV1; type: cell-based; details: 100% = no change, <100% = inhibition
# T15 construct: host or cells: HEK293 or CHO
# Outline: as §1
# [19] = first of two Nav1.5 columns (probably TP1)
# [20] = second of two Nav1.5 columns (probably TP2)
# [21] = first of two Nav1.7 columns (probably TP1)
# [22] = second of two Nav1.7 columns (probably TP2)
substance,measurement,setting,value
38 (GSGIGDPVTCLKSGAICHPVFCPRRYKQIGTCGLPGTKCCKKP) [compound 38],Activity of 5HT3a with peptide (percentage of the reference compound),[1],98%
same,"Activity of 5HT3a with peptide, expressed as a percentage of the reference compound",[1],97%
same,"Activity of a3b4 with peptide, expressed as a percentage of the reference compound",[2]; peptide at 0.2 μM,99%
same,Activity of a3b4 with peptide (percentage of the reference compound),[2]; peptide at 20 μM,92%
same,"Activity of a4b2 with peptide, expressed as a percentage of the reference compound",[3]; peptide at 0.2 μM,107%
same,Activity of a4b2 with peptide (percentage of the reference compound),[3]; peptide at 20 μM,88%
same,"Activity of Cav2.1 with peptide, expressed as a percentage of the reference compound",[4]; peptide at 0.2 μM,95%
same,Activity of Cav2.1 with peptide (percentage of the reference compound),[4]; peptide at 20 μM,93%
same,"Activity of Cav2.2 with peptide, expressed as a percentage of the reference compound",[5]; peptide at 0.2 μM,117%
same,Activity of Cav2.2 with peptide (percentage of the reference compound),[5]; peptide at 20 μM,89%
same,"Activity of Kv2.1 with peptide, expressed as a percentage of the reference compound",[6]; peptide at 0.2 μM,100%
same,Activity of Kv2.1 with peptide (percentage of the reference compound),[6]; peptide at 20 μM,125%
same,"Activity of GABA with peptide, expressed as a percentage of the reference compound",[7]; peptide at 0.2 μM,121%
same,Activity of GABA with peptide (percentage of the reference compound),[7]; peptide at 20 μM,112%
same,"Activity of Nav1.5 with peptide, expressed as a percentage of the reference compound",[8]; [19],124%
same,"Activity of Nav1.5 with peptide, expressed as a percentage of the reference compound",[8]; [20],124%
same,Activity of Nav1.5 with peptide (percentage of the reference compound),[8]; [19],107%
same,Activity of Nav1.5 with peptide (percentage of the reference compound),[8]; [20],112%
same,"Activity of hERG with peptide, expressed as a percentage of the reference compound",[9]; peptide at 0.2 μM,86%
same,Activity of hERG with peptide (percentage of the reference compound),[9]; peptide at 20 μM,71%
same,"Activity of Kir2.1 with peptide, expressed as a percentage of the reference compound",[10]; peptide at 0.2 μM,88%
same,Activity of Kir2.1 with peptide (percentage of the reference compound),[10]; peptide at 20 μM,126%
same,"Activity of Kv1.1 with peptide, expressed as a percentage of the reference compound",[11]; peptide at 0.2 μM,97%
same,Activity of Kv1.1 with peptide (percentage of the reference compound),[11]; peptide at 20 μM,73%
same,"Activity of Kv1.2 with peptide, expressed as a percentage of the reference compound",[12]; peptide at 0.2 μM,100%
same,Activity of Kv1.2 with peptide (percentage of the reference compound),[12]; peptide at 20 μM,84%
same,"Activity of Kv1.3 with peptide, expressed as a percentage of the reference compound",[13]; peptide at 0.2 μM,101%
same,Activity of Kv1.3 with peptide (percentage of the reference compound),[13]; peptide at 20 μM,31%
same,"Activity of Nav1.7 with peptide, expressed as a percentage of the reference compound",[14]; [21],83%
same,"Activity of Nav1.7 with peptide, expressed as a percentage of the reference compound",[14]; [22],143%
same,Activity of Nav1.7 with peptide (percentage of the reference compound),[14]; [21],86%
same,Activity of Nav1.7 with peptide (percentage of the reference compound),[14]; [22],86%
same,"Activity of NR2A with peptide, expressed as a percentage of the reference compound",[15]; peptide at 0.2 μM,100%
same,Activity of NR2A with peptide (percentage of the reference compound),[15]; peptide at 20 μM,90%
same,"Activity of NR2B with peptide, expressed as a percentage of the reference compound",[16]; peptide at 0.2 μM,83%
same,Activity of NR2B with peptide (percentage of the reference compound),[16]; peptide at 20 μM,88%
same,"Activity of TRPA1 with peptide, expressed as a percentage of the reference compound",[17]; peptide at 0.2 μM,138%
same,Activity of TRPA1 with peptide (percentage of the reference compound),[17]; peptide at 20 μM,108%
same,"Activity of TRPV1 with peptide, expressed as a percentage of the reference compound",[18]; peptide at 0.2 μM,98%
same,Activity of TRPV1 with peptide (percentage of the reference compound),[18]; peptide at 20 μM,76%
